From the DeepSol protein solubility set

Experiment: soluble on expression in E. coli; label from the status in PepcDB or PDB records

Row | Sequence | soluble on expression in E. coli
1 | MGSDKIHHHHHHMSDITSKVSLTNVAADNTVSSEQAKDINSIGQDLGIDMMASLQQAPFDEMLIREYLLDNPDFFNRYPELLVAMRVPHAERGAVSLVERRQELLRQRVSQLEEEITSLMNIATHNEKIFKFNTELSFKMLASQDLGELRLVLSEGLKNEFGFSHVRLITVHDIDSELAKIWRHRVQSGYYFGRLTQSESKRLFGSEVGSVALTKLSDENGQVIFAIASNDPTHFHPDMDSLLFSQLRRLLDHMLPKM | not soluble
2 | MWRLIYSLLFLIPGAAMAGAQVYEPLSASTRTVLHRTISDQAVPMLVTLPGPEAKDWLDSMTKRLEKRISDIEERRAFLITVHYEATRAGLDPELVLSIIQVESNFRKYAVSSAGARGYMQVMPFWVDTIGNPEHNLFHLRVNLRYGCTILRHYLDLEQGDYFRALGRYNGSLGKAGYPNLVFNAWHRHWTYSTASQ | not soluble
3 | MGSDKIHHHHHHMTEEKESLAGRQWLVDKVDNSIKEGQTAIPAIENGICQRCGSSCWVRLPSGFLYCRACVGLGRLDEGKLLVRQAAGSHYPARAGMTWTGQLQERQEGVSRFLLEKFAAKEDCLVEAVTGAGKTEMIFPLLAEAFSCGCRVAIATPRIDVVNELYPRLVAAFGEVEIGKYHGREEKEAANEQLVICTTHQLLKYYQAFDLLIIDEIDSFPYAGNPQLHFAAGNAVKKTGSQVFLTATPPEDLLKAARQGKLAIVRLNRRFHCYPLPVPRLDLYVKPFLTKGRLHPKLARRIKMAAKSGHPLLVFLPRIAQMPQYFAAVKRLLPDLRLATVYAQDPDRLEKVEKFRKGDLDLLLTTTILEGGVTLSMSG | not soluble
4 | MRKFIISFCCYVFFIFTLAAQDKAPHYTVIVSLDAFRWDYPAMYDTPNLNQMAREGVKATMLPSYPASTFPNHYTLATGLVPDHNGIINNTFWDVKRRRQYSMGDPATRNNPDYYLGEPIWITAQKQGVKTGNVYWVGSDIAIKGGYPTYYREYAEKPRLTFEQRVDSTIALLEKPEAERPRLVMLYFEEPDGVTHHHGPRSVEAAAIIHRMDSLVGMLRQGIASLPFGKDVNLIVTADHGMTEISDDRVVDMNKYLRPEWCEAVDGRTPTSIFTKPEYRDSVYNALKDVPHIHVWKKEEIPAELNYGSSDRIGDIVVAPELGWQFTDVPRALKGAHGYFPQSPDMQVMFRACGPDFKAGYESKGFVNVDIYPLLAHLLKITPEKTDGQFERIKDILKDVSFLEHHHHHH | not soluble
5 | MADTGEKDTETTASGTDGHSKEALAVISMLHECGIQEFDPRVVSMLMDVQYAVTSKILQMSSGLSRHAEKAQIEAEDVQTAADMLGVLTTNAPDREKILQLANDKNQQPLPQIRHNYGLKLPNDRFCQLQQNFVYKADDSYQPMEMQQVTHQPHIIEPPTQVLRPEHVQNMLKRRAPDDDFDS | not soluble
6 | MGSDKIHHHHHHMKIAFDAKRITHNATGLGNYSRFVVNSLSASFPEHTYQLYTPGKGKEALRKRIEERPSVSFHYPEGRFDKLFPSLWRTSGLTATLRKEHVDLFHGLSNEIPMNLKQNGIPAVVTIHDLIFLRYPQLYKPIDRSIYTYKFKQACLRSDKIIAISRQTMRDIRDFFHIPESKIEVVYQGCDPIFGQAVQEDVKSSVREKYQINGPYILYVGSIEERKNLLLLVKALKKLKEDISVIAIGKHTPYTDTVETYIRENNLSGRVHILTHIPFNELAAFYQMATLFVYPSFFEGFGIPILEAQLAGIPVIAATGSCLEEAGGPSALYTDPRNEQELRGLIESVLNEPKLAESMRSGGRENIRRFMPDVLAAHFMRVYENISRS | not soluble
7 | MGSDKIHHHHHHMLKNDRWITEQAAAGMLEPFQAGLIRHLDPEQHQRPVLSFGCSSFGYDLRLSAKEFLIFRHVPGTVMNPKRFNPANLESTPLHQDEDGEYFILPAHSYGLGVALEKMKVPSNITVICLGKSTYARLGIIVNTTPAEASWEGHLTLEFSNSSGADCRIYANEGICQLLFFEGDPCDTTYSDRQGKYQHQPERVTLARI | not soluble
8 | MGSDKIHHHHHHMPLYLKNHSYGEYVFDWAWANAYERAGHDYYPKLLSAIPFSPVTGKRLLAQTSEQRALLVSTALAIVRKGNAGAGMSSLHCLFPLEHEAREMERAGMMLRCGVQFHWKNRPGRGYENFEDFLGGMSYSKRKKIRQERRKVQDLGIHFEWLSGNDMDEDRWNFFIDCYNNTYREHHSRPYLNLEFFLRLGKSMPENILLILALQNKKPIGVAFNIHNSHTLYGRYWGAREFVPGLHFETCYYQAIQYCIANGLSLFEGGAQGEHKLARGFLPVRTWSAHWLVHSEFAAAIEGYLERETRDIDRYIHALEESAPFRKDARESE | not soluble
9 | QMCSSLMIIAFDFDGTLVDSYSCIEEAFYRALKRTYPWLPGKRYIAKLLTKLELQFERPKFGKHGRKIKPPMKIFQGKFARAWFEERAKLTKPLDGAREVLERLKEDGHIVISFSAEDFIPGIKEYRLKISGLYDLFDDVIIFGRDITICEAFSIVREKYGYDTFVWVDDKPWRFIGRGDENTEYVWMYFPYTARFVSDDILAQIPHLHVIYDLWSLLDVVKNLK | not soluble
10 | MLIRKITRKNPSPDVLEEAISVMEGGGIVIYPTDTIYGLGVNALDEDAVRRLFRVKGRSPHKPVSICVSCVDEIPRFSRPSGDAMELMERILPGPYTVVLERNELIPDVITGGSSRVGIRVPDDEICRRIAARFPVTATSANISGKPPSPRLEEIVRDLDAVDLVLDAGDCLDMEPSTVIDLTVNPPRVLRRGKGPLDPVLLRGAGDV | soluble
11 | MTIEDLQAFMKREFPQLGEAFEIVTVDEGSATMRLHADAQHLRPGGTVSGPSLFALADVAAYAAILAHIGPVALAVTTNLNINFLRKPSPGTVEAVAHLLKLGKRLAVLDISLTDGANGELVAHATATYSIPPRLEHHHHHH | soluble
12 | MPAGANSRTPATDFVQDYAAKRQAQMERARQLREDRLQQQQQQRQSSPKTSGGGNAYNSSPTYTAVPSASGGGTATAAPTSRQPPPPSLNVPRSRHVTPGHDSADSGSSPGKCGDGCVLYIKEQDFKQATQAGIITPDQARQLWAMLSNQIIRVCSPSAHANAVSVSSLLALSNNSYNSSGWAAGGPQSTGGSEFGASISLESLRTSIAYFKREQQRLQQQGGGGAAGAAHGSNAQGRHPLSSSPPALSNTVGQPLSQSRGLPQRQLQYDGNANSDYCRNDGAANDNEQRALGAPMPLRGSGGSGGGGRGGRPAWNSDVEVRHEDDYDDDRNRHAPSSMSTMNSGAAALKKPRTGRTNTVRPAAKGPAASSSPAAGASGVLGTSAQGRGYGSDNEEAGNNAYMPQQPSSAVPRGAKAGGSGAASRRPPASRPTAPPPSSGAPVNLDDVPVGGGGGGGGGMNDWANAYPPGMVPPTSTGGNDAIAAEAAAAAQEPMQECRTCGRRFRISVVMRHEALCRNQANKPRKVFNMREQRLDGVEGIKEVQRTAARSGGGGGGRGAGGGGGRGGGADAAAGAAKGKLPKWKVQHEQFQAAMRAVRQQKEAGGGFGSGRMAPPPAPIPEEYDDRVPCPHCGRKFAQDVAARHIPKCATTIAKPKGIRPIRR | not soluble
13 | MAHHHHHHMSTKYIIEHLDELEEWCIHEYIHICETVRDENVIFTKFCENFSELTNGKYKPACYEKSIDELKNELLSGNICLLDMKAKNKLTCNDKNKIDFLLFGGILGNVPSDDRTSILRNFNFPISRNLGPIQMTTNTAVLVCYIILNDNVELENIPYVDDPEIFLKNNKESITLPFRFVSKYYYTKCEQDKNVPVLPEKFKEYLIKLGDQQFDDMSSFLENEDN | not soluble
14 | MNIDAVVEFTKKHLKDEKTGHDFYHGQRVANLASKMYLEDHPDAHADSRMVAIIKSGGYLHDTIDEKVCDNPDKVIAEIKELLPEVGFTDLEVWDILFTIQHMSFSANIEHHYHLPLSGQYVQDADRLESLGAMGIARAFTYGGKHGNKIYDPEIKPEKLVSHDQYRNHVETTINHFYEKLFHLADTMNTPAMKKEANRRTEYMHNFVQEFMNEWNVLEHHHHHH | soluble
15 | MGRFRRVLTTAVLTTLLVGGTAGWASASSASVPGGPLPGTAAWLADDFLGRELPDPGTATPAEVAAFFAGLSDVQRHRLAEDHPAVVGNLDGVPVHLRYEANAPAGDRVLAYDPRGRGTIARVAGDLENAAHVSVIVPGSDIDAETFDRTAQRAADLQAAAGDDTAVIAWAGYTTPSGIGPDLATGRLAEAGAERLARLTEGLDAAGLPDPSLFCHSYGSVVCGLAADDTDARDIVVMGSPGMRADDVGALGTDAHVWAAKSPDDWIDRVPNVEFLGLGHGADPTSPGFGATVLPADDVPAHDEYFTPGTSTLAAFAAIADGERPLEHHHHHH | not soluble
16 | MENPPAEPFFLDASPGKRFCLYHSPAGDTPLNQVFIYLHPFAEEMNKSRRMAALQAKAFAAMGFGVLQIDLYGCGDSAGDFGEATWEIWKNDVEFAYQWLIQQGFTSVHFWGLRLGALLALDYAGKAETGSAKFILWQPVINGKSFLTQFLRLRLVNKLLSDDSDKAQNVHLREELRAGKSLEIAGYTLSPAMAAAIDELKLGQLVVGNSEIYWFEITPEAGRGLPPAGAAVVEAWNQSGVYPEVTLIPGLPFWATQEISECPALLAATAKLFAGIQP | not soluble
17 | MRQGFPYARPGQVIGLFGGSFDPPHAGHVHVTREALKMFGLDRVWWLVTPGNPLKAHGPAPLDRRMEAARAMMRHPRVDVTDIEAHLGTRVTADTIAALRRIYPRVRFVWLMGADNLAQLHRWKDWRQIIETVPVGVLARPGDRISARMSPAARAYAPYRIDGQARHLLGRAEAPAWCFVNVPMVDVSSTRIRAAGGWSAAQQGRGQTGTQDQ | not soluble
18 | MSLPHLSLADARNLHLAAQGLLNKPRRRASLEDIPATISRMSLLQIDTINIVARSPYLVLFSRLGNYPAQWLDESLARGELMEYWAHEACFMPRSDFRLIRHRMLAPEKMGWKYKDAWMQEHEAEIAQLIQHIHDKGPVRSADFEHPRKGASGWWEWKPHKRHLEGLFTAGKVMVIERRNFQRVYDLTHRVMPDWDDERDLVSQTEAEIIMLDNSARSLGIFREQWLADYYRLKRPALAAWREARAEQQQIIAVHVEKLGNLWLHADLLPLLERALAGKLTATHSAVLSPFDPVVWDRKRAEQLFDFSYRLECYTPAPKRQYGYFVLPLLHRGQLVGRMDAKMHRQTGILEVISLWLQEGIKPTTMLQKGLRQAITDFASWQQATRVTLGRCPQGLFTDCRTGWEIDPVA | not soluble
19 | MGSDKIHHHHHHMQELCSSVVLRKHSWIQYNAMSDTVIKVEKLSKEYRLGTINHGFLFRDLQSWWARRRGKEDPNSLITTYQQHLVSDDNSRLSGGRFLALDDLTFEVRQGDALGIIGRNGAGKSTLLKIISKVTSPTSGVVKIRGRVASLLEVGTGFHPELTGRENIYLNGAISGMNKKEIKNKFDEIVAFSGVEKFIDSPVKRYSSGMYVRLAFAVAAHLGPEILIVDEVLAVGDIQFQKQCLGKMDDISKGGRTVVFVSHSLQTIASLCRECILLDQGKIKKRGLPSEVILEYLGEGGSSCADFTKLGRTVGDNFVQLVMGIVQDANNEVITEIDIREPLKISMHFTVKQDTSIRYIPNFHFTVPGGTYAFVSSPSSISELSSGNYIATCNIPGNFLNEGTYYVGLAITSYEPGMTIHFFEPNVLTFSIRDPMENCVGRYGFGYANVMPGIVRPNLDWDVRKSG | not soluble
20 | MSLEKHKVDFYNIPIVDYLLSIGEPLESVGHNYYQHKHHDSLKINQRKNYFVWNSRSSEKNSRGGVVQYMQIMHNLSLQETLSKLSEDLDGKVLPAIPKKSYPKKFNYKVKEAIVPLETQRYLVAKRKIPNKIVRLFFSYDLISQNENNEVIFKWFKGDKVMGFSKQGTIPLTDEEKEKYHTKRDFFKYVAPTTEADTMWGFNYLSGEPKHIFFFESEIDLMSYYSIFEEELNETGNFWLISINGVAIEKVYSFFRYGIENLNLKETCQSLHVCFDNDIAGKQACNKLQHLEFKNIPFQNDLPKEFKDWNEVLQNKEGHHHHHH | soluble
